Laboratory results: FireProtDB (doi:10.1016/s0167-4838(99)00132-6)

Details: Escherichia coli (strain K12), Thermal, DSC, KH2PO4-KOH 10 mM, reversible: no, whole UniProt chain shown

B1: Glyceraldehyde-3-phosphate dehydrogenase A wild type, P0A9B2 (protein)
chain: MTIKVGINGFGRIGRIVFRAAQKRSDIEIVAINDLLDADYMAYMLKYDSTHGRFDGTVEVKDGHLIVNGKKIRVTAERDPANLKWDEVGVDVVAEATGLFLTDETARKHITAGAKKVVMTGPSKDNTPMFVKGANFDKYAGQDIVSNASCTTNCLAPLAKVINDNFGIIEGLMTTVHATTATQKTVDGPSHKDWRGGRGASQNIIPSSTGAAKAVGKVLPELNGKLTGMAFRVPTPNVSVVDLTVRLEKAATYEQIKAAVKAAAEGEMKGVLGYTEDDVVSTDFNGEVCTSVFDAKAGIALNDNFVKLVSWYDNETGYSNKVLDLIAHISK
- Tm (pH 6): 75.3 °C
- unfolding enthalpy (calorimetric) (pH 6): 908 kcal/mol
- Tm (pH 8): 72.6 °C
- unfolding enthalpy (calorimetric) (pH 8): 1080 kcal/mol
